The target of experiment [1] is Heimdallarchaeota AB125 Vps22 (HeimAB125_14050) (Heimdallarchaeota AB125). The experiment in a line: SEC-MALS.
The target is the same in experiment [2]. Briefly: cross-linking.
The target in experiment [3] is Odinarchaeota LCB_4 Vps23(TSG101) (Odinarchaeota archaeon LCB_4). The experiment in a line: SEC-MALS. On the technique in general: Size exclusion chromatography separates by hydrodynamic size, large species first.

Usually stoichiometry N stands for a count of units in the complex or per binding partner.

For “Heimdallarchaeota AB125 Vps22 (HeimAB125_14050) (natural protein)”, the stoichiometry N in experiment [1] and in experiment [2] was 2 throughout.

With “Odinarchaeota LCB_4 Vps23(TSG101) (natural protein)”, the stoichiometry N in experiment [3] was found to be 2.

In experiment [3], “Odinarchaeota LCB_4 Vps28 (natural protein)” had a stoichiometry N (Vps28 per Vps23 dimer) of 1.

Values taken from article doi:10.1101/2021.08.17.456605.
